{
  "source": "patent US20060288448",
  "proteins": {"B1": {"name": "iwm2s.pk015.c9 cathepsin L-like protease of western corn rootworm midgut (protein)", "chain": "MKLLILAATLIVAINANLSAFEQWTSFKATHNKFYNVIEDKLRFAVFQENLRKIDAHNAKYEKGEETYYMAVNKFADWSSAEFQAMLDRQMANKPKQSFIAKHVVDPNVQAVEEVDWRESAVLGVKDQGQCGSCWAFSTTGSLEGQLAIHKNQRVPLSEQELVDCDKVNDGCDGGLMTDAFFYIEHHGLSSEEQYPYTGVDGHCNHVKDKQVSSISGYVELDETESALADALANVGPVSIAVEADTWQFYSGGVFNNKNCGDALNHGVLAVGYTKDVFIVKNSWGTGWGEQGYIRVARGSNLCGINLMNSYPKL"}, "B2": {"name": "iwm2s.pk017.h10 cathepsin L-like protease of western corn rootworm midgut (protein)", "chain": "MKLFILAAALIVATSANLGAFEKWTSFKATHNKSYNVIEDKLRFAVFQDNLKKIEEHNAKYESGEETYYLAVNKFADWSSAEFQAMLARQMANKPKQSFIAKHVADPNVQAVEEVDWRDSAVLGVKDQGQCGSCWAFSTTGSLEGQLAIHKNQRVPLSEQELVDCDTSRNAGCNGGLMTDAFNYVKRHGLSSESQYAYTGRDDRCKNVENKPLSSISGYVELETTEDALASAVASVGPVSIAVDADTWQLYGGGLFNNKNCRTNLNHGVLAVGYTKDAFIVKNSWGTSWGEQGYIRVARGENLCGINLMNSYPKL"}},
  "key": {"[1]": {"target": "T1, Angiogenin peptide (Bachem), P03950 (not fully specified)", "T1 chain": "ENGLPVHLDQSIFRR"}, "β-casein, P02666": {"target": "T2, β-casein, P02666", "T2 chain": "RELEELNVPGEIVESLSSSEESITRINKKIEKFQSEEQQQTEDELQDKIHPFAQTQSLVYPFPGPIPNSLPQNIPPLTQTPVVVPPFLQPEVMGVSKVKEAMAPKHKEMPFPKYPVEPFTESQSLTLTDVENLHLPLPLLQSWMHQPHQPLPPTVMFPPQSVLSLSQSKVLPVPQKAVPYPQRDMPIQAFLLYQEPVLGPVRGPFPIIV"}},
  "data": [
    {"protein": "B1", "values": [
      {"measurement": "proteolytic digestion for 30 or 60 min (LC-MS, N-terminal sequencing)", "setting": "[1]", "value": "after 30 min two distinct pairs of cleavage products were detected that corresponded to cleavage immediately N-terminal to Leu8 or to Gln10"},
      {"measurement": "proteolytic digestion, cleavage site mapping", "setting": "κ-casein, P02668", "value": "κ-casein was also digested with c9 and h10 ... major detectable cleavage sites were observed after Ser54, Asp62, Serl25, and Met127"},
      {"measurement": "proteolytic digestion time course (SDS-PAGE, N-terminal sequencing)", "setting": "β-casein, P02666", "value": "The time course of β-casein digestion by c9 showed a major ˜19 kD digestion product (indicated by black arrowhead) by 2 minutes after addition of enzyme"}
    ]},
    {"protein": "B2", "values": [
      {"measurement": "proteolytic digestion, cleavage site mapping", "setting": "κ-casein, P02668", "value": "κ-casein was also digested with c9 and h10 ... major detectable cleavage sites were observed after Ser54, Asp62, Serl25, and Met127"}
    ]}
  ]
}
